Laboratory results: paper PMC4117528

Tests used:
[1] = SEC; analytical Superdex 200 calibrated with globular proteins; 25 µM protein; 20 mM sodium phosphate, 50 mM NaCl pH 7.3, 1 mM DTT
[2] = molecular target: PhaP from Azotobacter sp. FA8 (Azotobacter sp. FA8); experiment: SEC-MALS; 90° static light scattering (PD2010) with differential refractometer in tandem with analytical Superdex 200; 25 µM protein; 20 mM sodium phosphate pH 7.4, 150 mM NaCl, 1 mM DTT; average molecular weight of the oligomer

| stoichiometry N [2] | Substance | apparent number of monomers (SEC, globular calibration) [1] |
| --- | --- | --- |
|  | PhaP from Azotobacter sp. FA8 | This molecular weight corresponds to 9 monomers |
| 4 | PhaP from Azotobacter sp. FA8 (natural protein) |  |
